T1: AMARA peptide, synthetic substrate NH2-AMARAASAAALARRR-CO2H
T1 chain: AMARAASAAALARRR


Molecular target: T1, AMARA peptide, synthetic substrate …

Protein	Km (mM), pre-phosphorylated [mM]	fold lower Km for substrate than the unmodified enzyme	Km (mM), untreated [mM]
human PASK enzyme, wildtype, pre-phosphorylated in the presence of ATP (protein) MEDGGLTAFEEDQRCLSQSLPLPVSAEGPAAQTTAEPSRSFSSAHRHLSRRNGLSRLCQSRTALSEDRWSSYCLSSLAAQNICTSKLHCPAAPEHTDPSEPRGSVSCCSLLRGLSSGWSSPLLPAPVCNPNKAIFTVDAKTTEILVANDKACGLLGYSSQDLIGQKLTQFFLRSDSDVVEALSEEHMEADGHAAVVFGTVVDIISRSGEKIPVSVWMKRMRQERRLCCVVVLEPVERVSTWVAFQSDGTVTSCDSLFAHLHGYVSGEDVAGQHITDLIPSVQLPPSGQHIPKNLKIQRSVGRARDGTTFPLSLKLKSQPSSEEATTGEAAPVSGYRASVWVFCTISGLITLLPDGTIHGINHSFALTLFGYGKTELLGKNITFLIPGFYSYMDLAYNSSLQLPDLASCLDVGNESGCGERTLDPWQGQDPAEGGQDPRINVVLAGGHVVPRDEIRKLMESQDIFTGTQTELIAGGQLLSCLSPQPAPGVDNVPEGSLPVHGEQALPKDQQITALGREEPVAIESPGQDLLGESRSEPVDVKPFASCEDSEAPVPAEDGGSDAGMCGLCQKAQLERMGVSGPSGSDLWAGAAVAKPQAKGQLAGGSLLMHCPCYGSEWGLWWRSQDLAPSPSGMAGLSFGTPTLDEPWLGVENDREELQTCLIKEQLSQLSLAGALDVPHAELVPTECQAVTAPVSSCDLGGRDLCGGCTGSSSACYALATDLPGGLEAVEAQEVDVNSFSWNLKELFFSDQTDQTSSNCSCATSELRETPSSLAVGSDPDVGSLQEQGSCVLDDRELLLLTGTCVDLGQGRRFRESCVGHDPTEPLEVCLVSSEHYAASDRESPGHVPSTLDAGPEDTCPSAEEPRLNVQVTSTPVIVMRGAAGLQREIQEGAYSGSCHHRDGLRLSIQFEVRRVELQGPTPLFCCWLVKDLLHSQRDSAARTRLFLASLPGSTHSTAAELTGPSLVEVLRARPWFEEPPKAVELEGLAACEGEYSQKYSTMSPLGSGAFGFVWTAVDKEKNKEVVVKFIKKEKVLEDCWIEDPKLGKVTLEIAILSRVEHANIIKVLDIFENQGFFQLVMEKHGSGLDLFAFIDRHPRLDEPLASYIFRQLVSAVGYLRLKDIIHRDIKDENIVIAEDFTIKLIDFGSAAYLERGKLFYTFCGTIEYCAPEVLMGNPYRGPELEMWSLGVTLYTLVFEENPFCELEETVEAAIHPPYLVSKELMSLVSGLLQPVPERRTTLEKLVTDPWVTQPVNLADYTWEEVCRVNKPESGVLSAASLEMGNRSLSDVAQAQELCGGPVPGEAPNGQGCLHPGDPRLLTS	0.2	6.5-fold lower Km for substrate than the unmodified enzyme	–
human PASK enzyme, wildtype, untreated (unmodified, as purified from baculovirus-infected Sf-9 cells) (protein) MEDGGLTAFEEDQRCLSQSLPLPVSAEGPAAQTTAEPSRSFSSAHRHLSRRNGLSRLCQSRTALSEDRWSSYCLSSLAAQNICTSKLHCPAAPEHTDPSEPRGSVSCCSLLRGLSSGWSSPLLPAPVCNPNKAIFTVDAKTTEILVANDKACGLLGYSSQDLIGQKLTQFFLRSDSDVVEALSEEHMEADGHAAVVFGTVVDIISRSGEKIPVSVWMKRMRQERRLCCVVVLEPVERVSTWVAFQSDGTVTSCDSLFAHLHGYVSGEDVAGQHITDLIPSVQLPPSGQHIPKNLKIQRSVGRARDGTTFPLSLKLKSQPSSEEATTGEAAPVSGYRASVWVFCTISGLITLLPDGTIHGINHSFALTLFGYGKTELLGKNITFLIPGFYSYMDLAYNSSLQLPDLASCLDVGNESGCGERTLDPWQGQDPAEGGQDPRINVVLAGGHVVPRDEIRKLMESQDIFTGTQTELIAGGQLLSCLSPQPAPGVDNVPEGSLPVHGEQALPKDQQITALGREEPVAIESPGQDLLGESRSEPVDVKPFASCEDSEAPVPAEDGGSDAGMCGLCQKAQLERMGVSGPSGSDLWAGAAVAKPQAKGQLAGGSLLMHCPCYGSEWGLWWRSQDLAPSPSGMAGLSFGTPTLDEPWLGVENDREELQTCLIKEQLSQLSLAGALDVPHAELVPTECQAVTAPVSSCDLGGRDLCGGCTGSSSACYALATDLPGGLEAVEAQEVDVNSFSWNLKELFFSDQTDQTSSNCSCATSELRETPSSLAVGSDPDVGSLQEQGSCVLDDRELLLLTGTCVDLGQGRRFRESCVGHDPTEPLEVCLVSSEHYAASDRESPGHVPSTLDAGPEDTCPSAEEPRLNVQVTSTPVIVMRGAAGLQREIQEGAYSGSCHHRDGLRLSIQFEVRRVELQGPTPLFCCWLVKDLLHSQRDSAARTRLFLASLPGSTHSTAAELTGPSLVEVLRARPWFEEPPKAVELEGLAACEGEYSQKYSTMSPLGSGAFGFVWTAVDKEKNKEVVVKFIKKEKVLEDCWIEDPKLGKVTLEIAILSRVEHANIIKVLDIFENQGFFQLVMEKHGSGLDLFAFIDRHPRLDEPLASYIFRQLVSAVGYLRLKDIIHRDIKDENIVIAEDFTIKLIDFGSAAYLERGKLFYTFCGTIEYCAPEVLMGNPYRGPELEMWSLGVTLYTLVFEENPFCELEETVEAAIHPPYLVSKELMSLVSGLLQPVPERRTTLEKLVTDPWVTQPVNLADYTWEEVCRVNKPESGVLSAASLEMGNRSLSDVAQAQELCGGPVPGEAPNGQGCLHPGDPRLLTS	–	–	1.3
human PASK S1273,77,80A, pre-phosphorylated (protein) MEDGGLTAFEEDQRCLSQSLPLPVSAEGPAAQTTAEPSRSFSSAHRHLSRRNGLSRLCQSRTALSEDRWSSYCLSSLAAQNICTSKLHCPAAPEHTDPSEPRGSVSCCSLLRGLSSGWSSPLLPAPVCNPNKAIFTVDAKTTEILVANDKACGLLGYSSQDLIGQKLTQFFLRSDSDVVEALSEEHMEADGHAAVVFGTVVDIISRSGEKIPVSVWMKRMRQERRLCCVVVLEPVERVSTWVAFQSDGTVTSCDSLFAHLHGYVSGEDVAGQHITDLIPSVQLPPSGQHIPKNLKIQRSVGRARDGTTFPLSLKLKSQPSSEEATTGEAAPVSGYRASVWVFCTISGLITLLPDGTIHGINHSFALTLFGYGKTELLGKNITFLIPGFYSYMDLAYNSSLQLPDLASCLDVGNESGCGERTLDPWQGQDPAEGGQDPRINVVLAGGHVVPRDEIRKLMESQDIFTGTQTELIAGGQLLSCLSPQPAPGVDNVPEGSLPVHGEQALPKDQQITALGREEPVAIESPGQDLLGESRSEPVDVKPFASCEDSEAPVPAEDGGSDAGMCGLCQKAQLERMGVSGPSGSDLWAGAAVAKPQAKGQLAGGSLLMHCPCYGSEWGLWWRSQDLAPSPSGMAGLSFGTPTLDEPWLGVENDREELQTCLIKEQLSQLSLAGALDVPHAELVPTECQAVTAPVSSCDLGGRDLCGGCTGSSSACYALATDLPGGLEAVEAQEVDVNSFSWNLKELFFSDQTDQTSSNCSCATSELRETPSSLAVGSDPDVGSLQEQGSCVLDDRELLLLTGTCVDLGQGRRFRESCVGHDPTEPLEVCLVSSEHYAASDRESPGHVPSTLDAGPEDTCPSAEEPRLNVQVTSTPVIVMRGAAGLQREIQEGAYSGSCHHRDGLRLSIQFEVRRVELQGPTPLFCCWLVKDLLHSQRDSAARTRLFLASLPGSTHSTAAELTGPSLVEVLRARPWFEEPPKAVELEGLAACEGEYSQKYSTMSPLGSGAFGFVWTAVDKEKNKEVVVKFIKKEKVLEDCWIEDPKLGKVTLEIAILSRVEHANIIKVLDIFENQGFFQLVMEKHGSGLDLFAFIDRHPRLDEPLASYIFRQLVSAVGYLRLKDIIHRDIKDENIVIAEDFTIKLIDFGSAAYLERGKLFYTFCGTIEYCAPEVLMGNPYRGPELEMWSLGVTLYTLVFEENPFCELEETVEAAIHPPYLVSKELMSLVSGLLQPVPERRTTLEKLVTDPWVTQPVNLADYTWEEVCRVNKPEAGVLAAAALEMGNRSLSDVAQAQELCGGPVPGEAPNGQGCLHPGDPRLLTS	0.3	–	–
human PASK S1149A, pre-phosphorylated (protein) MEDGGLTAFEEDQRCLSQSLPLPVSAEGPAAQTTAEPSRSFSSAHRHLSRRNGLSRLCQSRTALSEDRWSSYCLSSLAAQNICTSKLHCPAAPEHTDPSEPRGSVSCCSLLRGLSSGWSSPLLPAPVCNPNKAIFTVDAKTTEILVANDKACGLLGYSSQDLIGQKLTQFFLRSDSDVVEALSEEHMEADGHAAVVFGTVVDIISRSGEKIPVSVWMKRMRQERRLCCVVVLEPVERVSTWVAFQSDGTVTSCDSLFAHLHGYVSGEDVAGQHITDLIPSVQLPPSGQHIPKNLKIQRSVGRARDGTTFPLSLKLKSQPSSEEATTGEAAPVSGYRASVWVFCTISGLITLLPDGTIHGINHSFALTLFGYGKTELLGKNITFLIPGFYSYMDLAYNSSLQLPDLASCLDVGNESGCGERTLDPWQGQDPAEGGQDPRINVVLAGGHVVPRDEIRKLMESQDIFTGTQTELIAGGQLLSCLSPQPAPGVDNVPEGSLPVHGEQALPKDQQITALGREEPVAIESPGQDLLGESRSEPVDVKPFASCEDSEAPVPAEDGGSDAGMCGLCQKAQLERMGVSGPSGSDLWAGAAVAKPQAKGQLAGGSLLMHCPCYGSEWGLWWRSQDLAPSPSGMAGLSFGTPTLDEPWLGVENDREELQTCLIKEQLSQLSLAGALDVPHAELVPTECQAVTAPVSSCDLGGRDLCGGCTGSSSACYALATDLPGGLEAVEAQEVDVNSFSWNLKELFFSDQTDQTSSNCSCATSELRETPSSLAVGSDPDVGSLQEQGSCVLDDRELLLLTGTCVDLGQGRRFRESCVGHDPTEPLEVCLVSSEHYAASDRESPGHVPSTLDAGPEDTCPSAEEPRLNVQVTSTPVIVMRGAAGLQREIQEGAYSGSCHHRDGLRLSIQFEVRRVELQGPTPLFCCWLVKDLLHSQRDSAARTRLFLASLPGSTHSTAAELTGPSLVEVLRARPWFEEPPKAVELEGLAACEGEYSQKYSTMSPLGSGAFGFVWTAVDKEKNKEVVVKFIKKEKVLEDCWIEDPKLGKVTLEIAILSRVEHANIIKVLDIFENQGFFQLVMEKHGSGLDLFAFIDRHPRLDEPLASYIFRQLVSAVGYLRLKDIIHRDIKDENIVIAEDFTIKLIDFGAAAYLERGKLFYTFCGTIEYCAPEVLMGNPYRGPELEMWSLGVTLYTLVFEENPFCELEETVEAAIHPPYLVSKELMSLVSGLLQPVPERRTTLEKLVTDPWVTQPVNLADYTWEEVCRVNKPESGVLSAASLEMGNRSLSDVAQAQELCGGPVPGEAPNGQGCLHPGDPRLLTS	0.6	–	–
